These results are taken from US20230235013A1 (MABSOLVE, published 2023).

The experiment concerns the target T1, Histidine-tagged recombinant human FcγRI (CD64) (human, UniProt P12314 16-288).
T1 construct: bought; also called Sino Biological Cat. No. 12056-H08H
Briefly: SPR, culture supernatant, captured His-FcγRI.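 Further: biacore T200 SPR at 25 °C, anti-His capture, supernatants of HEK293 cells expressing IgG1 Fc variants injected 1 min, reference-subtracted response read 55 s after injection start.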 For orientation: In SPR one partner is held on a chip, and binding of the other changes the refractive index at the surface.

Changes are numbered by the printed parent chain. Numbers in names are those of the source.

B1: anti-CD20 human IgG1 L234R/L235A/G236R (antibody)
heavy: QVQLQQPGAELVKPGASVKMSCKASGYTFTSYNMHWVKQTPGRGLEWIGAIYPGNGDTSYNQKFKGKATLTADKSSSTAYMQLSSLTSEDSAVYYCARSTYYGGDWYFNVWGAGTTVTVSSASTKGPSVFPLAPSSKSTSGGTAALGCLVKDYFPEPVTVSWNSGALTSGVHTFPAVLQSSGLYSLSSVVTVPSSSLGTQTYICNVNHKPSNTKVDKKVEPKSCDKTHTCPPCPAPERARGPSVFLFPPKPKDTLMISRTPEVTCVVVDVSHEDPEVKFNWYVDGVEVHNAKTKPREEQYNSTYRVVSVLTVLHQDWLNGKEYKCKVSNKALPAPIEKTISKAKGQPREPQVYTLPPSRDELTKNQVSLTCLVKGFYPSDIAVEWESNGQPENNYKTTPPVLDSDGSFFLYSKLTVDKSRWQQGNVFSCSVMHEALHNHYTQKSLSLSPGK
light: QIVLSQSPAILSASPGEKVTMTCRASSSVSYIHWFQQKPGSSPKPWIYATSNLASGVPVRFSGSGSGTSYSLTISRVEAEDAATYYCQQWTSNPPTFGGGTKLEIKRTVAAPSVFIFPPSDEQLKSGTASVVCLLNNFYPREAKVQWKVDNALQSGNSQESVTEQDSKDSTYSLSSTLTLSKADYEKHKVYACEVTHQGLSSPVTKSFNRGEC
notes: copies: 2 + 2
In the case of B1, the Mean binding response amounted to 28.1 RU.

B2: anti-CD20 human IgG1 L234S/L235E/G236R (antibody)
heavy: QVQLQQPGAELVKPGASVKMSCKASGYTFTSYNMHWVKQTPGRGLEWIGAIYPGNGDTSYNQKFKGKATLTADKSSSTAYMQLSSLTSEDSAVYYCARSTYYGGDWYFNVWGAGTTVTVSSASTKGPSVFPLAPSSKSTSGGTAALGCLVKDYFPEPVTVSWNSGALTSGVHTFPAVLQSSGLYSLSSVVTVPSSSLGTQTYICNVNHKPSNTKVDKKVEPKSCDKTHTCPPCPAPESERGPSVFLFPPKPKDTLMISRTPEVTCVVVDVSHEDPEVKFNWYVDGVEVHNAKTKPREEQYNSTYRVVSVLTVLHQDWLNGKEYKCKVSNKALPAPIEKTISKAKGQPREPQVYTLPPSRDELTKNQVSLTCLVKGFYPSDIAVEWESNGQPENNYKTTPPVLDSDGSFFLYSKLTVDKSRWQQGNVFSCSVMHEALHNHYTQKSLSLSPGK
light: B1 light
notes: also called 2-46; copies: 2 + 2
In the case of B2, the Mean binding response was determined as 11.6 RU.

B3: anti-CD20 human IgG1 L234T/L235G/G236R (antibody)
heavy: B2 heavy with S238T, E239G
light: B1 light
notes: copies: 2 + 2
For the molecule B3, the Mean binding response was determined as 26.9 RU.

B4: anti-CD20 human IgG1 L234T/L235R/G236R (antibody)
heavy: B2 heavy with S238T, E239R
light: B1 light
notes: also called 2-61; copies: 2 + 2
For B4, the Mean binding response was 13.6 RU.

B5: anti-CD20 human IgG1 L234K/L235S/G236R (antibody)
heavy: B2 heavy with S238K, E239S
light: B1 light
notes: also called 1-89; 2-24; copies: 2 + 2
For B5, the Mean binding response is 16.1 RU.

B6: anti-CD20 human IgG1 L234A/L235A (LALA) (antibody)
heavy: not shown
light: B1 light
notes: also called 10.16; copies: 2 + 2
Take B6: the Mean binding response was determined as 65 RU.

B7: anti-CD20 human IgG1 L234R/L235H/G236R (antibody)
heavy: B2 heavy with S238R, E239H
light: B1 light
notes: also called 2-38; copies: 2 + 2
For B7, the Mean binding response amounted to 14.3 RU.

B8: anti-CD20 human IgG1 L234S/L235G/G236R (antibody)
heavy: B2 heavy with E239G
light: B1 light
notes: also called 1-140; 2-47; copies: 2 + 2
With B8, the Mean binding response was found to be 11.2 RU.

B9: anti-CD20 human IgG1 L234S/L235N/G236R (antibody)
heavy: B2 heavy with E239N
light: B1 light
notes: copies: 2 + 2
Consider B9, for which the Mean binding response was 22.7 RU.

B10: anti-CD20 human IgG1 L234R/L235N/G236R (antibody)
heavy: B2 heavy with S238R, E239N
light: B1 light
notes: copies: 2 + 2
Turning to B10, the Mean binding response was found to be 10.8 RU.

B11: anti-CD20 human IgG1 L234R/L235S/G236R (antibody)
heavy: B2 heavy with S238R, E239S
light: B1 light
notes: copies: 2 + 2
Turning to B11, the Mean binding response was 34 RU.

B12: anti-CD20 human IgG1 L234R/L235D/G236R (antibody)
heavy: B2 heavy with S238R, E239D
light: B1 light
notes: copies: 2 + 2
Take B12: the Mean binding response was determined as 11.1 RU.

B13: anti-CD20 human IgG1 L234R/L235G/G236R (antibody)
heavy: B2 heavy with S238R, E239G
light: B1 light
notes: copies: 2 + 2
B13: the Mean binding response was 31.9 RU.

B14: anti-CD20 human IgG1 L234T/L235N/G236R (antibody)
heavy: B2 heavy with S238T, E239N
light: B1 light
notes: copies: 2 + 2
On to B14, for which the Mean binding response stood at 22.4 RU.

B15: anti-CD20 human IgG1 L234S/L235I/G236R (antibody)
heavy: B2 heavy with E239I
light: B1 light
notes: also called 2-49; copies: 2 + 2
For B15, the Mean binding response was 12 RU.

B16: anti-CD20 human IgG1 L234T/L235A/G236R (antibody)
heavy: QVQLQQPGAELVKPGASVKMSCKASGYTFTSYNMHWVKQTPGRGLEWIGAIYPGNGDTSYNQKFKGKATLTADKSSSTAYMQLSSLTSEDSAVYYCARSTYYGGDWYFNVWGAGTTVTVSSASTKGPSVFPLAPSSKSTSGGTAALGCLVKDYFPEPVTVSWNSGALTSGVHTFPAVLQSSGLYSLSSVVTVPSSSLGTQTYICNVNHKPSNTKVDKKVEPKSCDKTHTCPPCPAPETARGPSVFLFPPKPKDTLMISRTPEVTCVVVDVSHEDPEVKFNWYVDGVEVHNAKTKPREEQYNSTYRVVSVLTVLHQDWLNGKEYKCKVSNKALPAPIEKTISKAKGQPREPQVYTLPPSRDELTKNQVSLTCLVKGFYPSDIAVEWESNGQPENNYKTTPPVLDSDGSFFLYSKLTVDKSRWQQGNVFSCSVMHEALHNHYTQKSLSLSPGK
light: B1 light
notes: also called 1-152; 2-54; copies: 2 + 2
Regarding B16, the Mean binding response was 11.8 RU.

B17: anti-CD20 human IgG1 L234S/L235R/G236R (antibody)
heavy: B2 heavy with E239R
light: B1 light
notes: also called 2-51; copies: 2 + 2
On to B17, for which the Mean binding response stood at 11.1 RU.

B18: anti-CD20 human IgG1 L234S/L235K/G236R (antibody)
heavy: B2 heavy with E239K
light: B1 light
notes: copies: 2 + 2
Regarding B18, the Mean binding response was 23.8 RU.

B19: anti-CD20 human IgG1 L234S/L235Q/G236R (antibody)
heavy: B2 heavy with E239Q
light: B1 light
notes: copies: 2 + 2
Take B19: the Mean binding response was 29.6 RU.

B20: anti-CD20 human IgG1 L234R/L235Q/G236R (antibody)
heavy: B2 heavy with S238R, E239Q
light: B1 light
notes: also called 2-42; copies: 2 + 2
Take B20: the Mean binding response stood at 10.1 RU.

B21: anti-CD20 human IgG1 L234T/L235M/G236R (antibody)
heavy: B2 heavy with S238T, E239M
light: B1 light
notes: also called 1-160; copies: 2 + 2
Regarding B21, the Mean binding response was 31.6 RU.

B22: anti-CD20 human IgG1 L234S/L235S/G236R (antibody)
heavy: B2 heavy with E239S
light: B1 light
notes: also called 1-149; copies: 2 + 2
Consider B22, for which the Mean binding response was 25.6 RU.

B23: anti-CD20 human IgG1 L234T/L235E/G236R (antibody)
heavy: B2 heavy with S238T
light: B1 light
notes: copies: 2 + 2
In the case of B23, the Mean binding response turned out to be 24 RU.

B24: anti-CD20 human IgG1 L234K/L235T/G236R (antibody)
heavy: B2 heavy with S238K, E239T
light: B1 light
notes: also called 1-90; 2-25; copies: 2 + 2
Regarding B24, the Mean binding response was determined as 15.8 RU.

B25: anti-CD20 human IgG1 L234K/L235R/G236R (antibody)
heavy: B2 heavy with S238K, E239R
light: B1 light
notes: also called 1-88; 2-23; copies: 2 + 2
As to B25, the Mean binding response came to 13.9 RU.

B26: anti-CD20 human IgG1 L234R/L235V/G236R (antibody)
heavy: B2 heavy with S238R, E239V
light: B1 light
notes: copies: 2 + 2
Take B26: the Mean binding response came to 32.5 RU.

B27: anti-CD20 human IgG1 L234R/L235E/G236R (antibody)
heavy: B2 heavy with S238R
light: B1 light
notes: also called 2-37; copies: 2 + 2
With B27, the Mean binding response worked out at 16.7 RU.

B28: anti-CD20 human IgG1 L234S/L235M/G236R (antibody)
heavy: B2 heavy with E239M
light: B1 light
notes: copies: 2 + 2
Take B28: the Mean binding response came to 32 RU.

B29: anti-CD20 human IgG1 L234R/L235K/G236R (antibody)
heavy: B2 heavy with S238R, E239K
light: B1 light
notes: also called 2-40; copies: 2 + 2
As to B29, the Mean binding response came out at 19.2 RU.

B30: anti-CD20 human IgG1 L234D/L235K/G236R (antibody)
heavy: B2 heavy with S238D, E239K
light: B1 light
notes: also called 1-23; 2-7; copies: 2 + 2
Regarding B30, the Mean binding response is 20.9 RU.

B31: anti-CD20 human IgG1 L234S/L235A/G236R (antibody)
heavy: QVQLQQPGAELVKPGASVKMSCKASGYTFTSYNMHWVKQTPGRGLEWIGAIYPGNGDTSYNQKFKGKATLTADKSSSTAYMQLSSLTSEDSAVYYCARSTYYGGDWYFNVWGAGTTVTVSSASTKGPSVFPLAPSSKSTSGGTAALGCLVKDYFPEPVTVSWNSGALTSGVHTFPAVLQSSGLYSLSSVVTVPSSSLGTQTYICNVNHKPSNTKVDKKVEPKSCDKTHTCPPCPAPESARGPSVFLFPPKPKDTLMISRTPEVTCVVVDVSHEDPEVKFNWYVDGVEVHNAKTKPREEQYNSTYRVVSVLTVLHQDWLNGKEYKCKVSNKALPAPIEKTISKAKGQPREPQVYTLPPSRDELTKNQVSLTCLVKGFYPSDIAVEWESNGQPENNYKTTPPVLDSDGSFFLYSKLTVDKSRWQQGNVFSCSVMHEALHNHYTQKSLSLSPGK
light: B1 light
notes: also called 1-137; copies: 2 + 2
As to B31, the Mean binding response amounted to 29.6 RU.

B32: anti-CD20 human IgG1 L234K/L235V/G236R (antibody)
heavy: B2 heavy with S238K, E239V
light: B1 light
notes: also called 1-91; 2-26; copies: 2 + 2
Consider B32, for which the Mean binding response was found to be 12.8 RU.

B33: anti-CD20 human IgG1 L234R/L235I/G236R (antibody)
heavy: B2 heavy with S238R, E239I
light: B1 light
notes: also called 2-39; copies: 2 + 2
On to B33, for which the Mean binding response worked out at 10.7 RU.
